The assay addresses T1, His-PABPC1 (UniProt P11940 1-636).
T1 construct: also called purified His-PABPC1; source: E. coli BL21 (pET28a), purified with nickel-nitrilotriacetic acid beads
The experiment in a line: pull-down; purified GST-tagged EWS fragment on glutathione magnetic beads; purified His-tagged protein (PABPC1 or ERG) added, no third protein; immunoblot. The conditions noted are these: both partners purified.

T1 sequence (P11940 whole entry): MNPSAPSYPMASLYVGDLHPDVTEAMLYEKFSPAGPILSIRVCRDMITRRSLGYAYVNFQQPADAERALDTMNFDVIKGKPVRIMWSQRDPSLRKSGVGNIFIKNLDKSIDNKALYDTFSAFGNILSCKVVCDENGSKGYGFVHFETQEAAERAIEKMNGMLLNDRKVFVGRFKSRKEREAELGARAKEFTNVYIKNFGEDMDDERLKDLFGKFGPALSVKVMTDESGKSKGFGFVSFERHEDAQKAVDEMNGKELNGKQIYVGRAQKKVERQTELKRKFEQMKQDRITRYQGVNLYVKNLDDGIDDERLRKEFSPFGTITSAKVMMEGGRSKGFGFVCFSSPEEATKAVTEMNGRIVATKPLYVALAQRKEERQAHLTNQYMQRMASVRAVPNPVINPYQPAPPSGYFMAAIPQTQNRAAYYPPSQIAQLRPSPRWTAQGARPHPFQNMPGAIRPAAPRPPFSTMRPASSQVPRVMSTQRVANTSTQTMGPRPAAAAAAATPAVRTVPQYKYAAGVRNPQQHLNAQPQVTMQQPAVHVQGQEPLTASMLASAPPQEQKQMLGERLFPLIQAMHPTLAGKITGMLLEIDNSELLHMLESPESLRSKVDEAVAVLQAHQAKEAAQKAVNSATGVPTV

B1: GST-EWS 356 to 656 (ctEWS) (domain or fragment, UniProt Q01844 356-656, looked up)
chain: EDSDNSAIYVQGLNDSVTLDDLADFFKQCGVVKMNKRTGQPMIHIYLDKETGKPKGDATVSYEDPPTAKAAVEWFDGKDFQGSKLKVSLARKKPPMNSMRGGLPPREGRGMPPPLRGGPGGPGGPGGPMGRMGGRGGDRGGFPPRGPRGSRGNPSGGGNVQHRAGDWQCPNPGCGNQNFAWRTECNQCKAPKPEGFLPPPFPPPGGDRGRGGPGGMRGGRGGLMDRGGPGGMFRGGRGGDRGGFRGGRGMDRGGFGGGRRGGPGGPPGPLMEQMGGRRGGRGGPGKMDKGEHRQERRDRPY
notes: also called GST-ctEWS; C terminus of EWS; source: E. coli BL21 (pGEX-6p-2), purified with magnetic GSH beads
Turning to B1, the binding result is listed as “binds”.

The record behind these values is paper PMC10704431, “A complex with poly(A)-binding protein and EWS facilitates the transcriptional function of oncogenic ETS transcription factors in prostate cells” (The Journal of Biological Chemistry, 2023).
